Tests used:
[1] = target: T1, HER3 on MCF7 cells (with endogenous HER2) (Homo sapiens, UniProt P21860 SEQ:20-1342); assay: cell_activity; half-maximal inhibition of heregulin-specific MCF7 growth; maximum 50% inhibition; conditions: label: internal 32P; triple hairpin loop
Description: MCF7 cells were seeded in 96 well plates (2500 cells/well) in RPMI, 2% fetal bovine serum, 2 units of RNAse inhibitor/ml and varying concentrations of heregulin and aptamer. After two days, cell growth was determined using an MTT/tetrazolium based assay (Promega). Cell growth was equated with the absorbance of converted and solubilized dye at 560 nm. All samples were determined in triplicate.
Next, we evaluated the ability of A30 to interfere with receptor activation by wild type heregulin. […] In contrast, the activation of HER2 by EGF, which proceeds through hetetodimers of EGFR and HER2, is not inhibited by A30 (FIG. 7b). The low intensity of tyrosine phosphorylation of HER2 after stimulation by EGF is a reflection of the lower levels of EGFR (5000/cell) compared to HER2 (15,000) and HER3 (25,000) (see, e.g. Aguilar et al. (1999) Oncogene 18, 6050-62) and the fact that EGFR signaling proceeds only in part through heterodimers with HER2. To evaluate if the inhibition of tyrosine phosphorylation is reflected in a reduction in heregulin-specific growth stimulation, we incubated MCF7 cells in the presence of different concentrations of A30 and heregulin for two days (FIG. 8). […] Half-maximal inhibition occurs at around 1 nM A30. The addition of A30 alone has little effect on the growth of MCF7 cells.

[2] = target: T2, HER3 extracellular domain (HER3ECD, ErbB3) (Homo sapiens, UniProt P21860 SEQ:20-643); assay: EMSA; apparent Kd by displacement with unlabeled A30; no heregulin; 10 mM HEPES pH 7.4, 100 mM NaCl, 2.5 mM MgCl2, 37 C, 0.5 uM tRNA; conditions: tags: C-terminal V5 and hexa-His (pMT/BiP/V5-His A, S2 insect cells); chain copies: oligomeric (self-associated; stated); label: internal 32P; triple hairpin loop
T2 sequence (P21860 20-643 E560G): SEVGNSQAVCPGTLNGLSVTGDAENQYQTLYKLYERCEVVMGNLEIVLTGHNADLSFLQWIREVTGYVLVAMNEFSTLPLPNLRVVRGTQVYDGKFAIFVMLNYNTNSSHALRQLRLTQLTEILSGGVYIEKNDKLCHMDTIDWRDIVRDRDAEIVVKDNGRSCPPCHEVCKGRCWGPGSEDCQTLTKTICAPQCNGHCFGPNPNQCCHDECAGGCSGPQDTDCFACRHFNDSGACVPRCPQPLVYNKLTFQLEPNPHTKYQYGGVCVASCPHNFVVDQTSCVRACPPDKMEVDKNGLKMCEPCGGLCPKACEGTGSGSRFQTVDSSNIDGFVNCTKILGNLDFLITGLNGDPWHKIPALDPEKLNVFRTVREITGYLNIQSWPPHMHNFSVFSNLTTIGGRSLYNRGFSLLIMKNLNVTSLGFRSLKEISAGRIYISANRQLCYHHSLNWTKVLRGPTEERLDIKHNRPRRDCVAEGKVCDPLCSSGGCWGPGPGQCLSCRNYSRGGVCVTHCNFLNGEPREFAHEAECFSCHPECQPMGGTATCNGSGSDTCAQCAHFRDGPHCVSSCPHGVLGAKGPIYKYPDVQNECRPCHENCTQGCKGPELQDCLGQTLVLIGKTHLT
Description: (§1) For screening purposes, 8 pmol of internally labeled aptamer were incubated in binding buffer with 24 pmol of HER3ECD at 37° C. for 10 minutes and analyzed on 6% non-denaturing polyacrylamide gels as described above. Aptamers displaying substantial shift were reverse transcribed and sequenced. For subsequent analysis of A30 binding, internally labeled and unlabeled A30 was denatured at 90° C. for 2 min in PBS and cooled on ice for 1 min. A30 was incubated with HER3ECD in binding buffer for 10 min at 37° C. at the indicated concentrations and in the presence 0.5 μM tRNA and was analyzed by electrophoresis on a non-denaturing 6% polyacrylamide gel at 4° C. Were indicated, HER3ECD and heregulin were premixed at room temperature three minutes before the addition of A30.
(§2) Several lines of evidence provide evidence that the interaction of A30 with HER3ECD involves at least two different modes of binding. […] Addition of heregulin has two consequences. […] With respect to the heregulin-induced increase and dual mode of binding, we observed a similar, although less pronounced, effect for A30 binding to MCF7 cells (FIG. 4B+C). MCF7 cells endogenously express both HER3 and HER2. […] The addition of heregulin results in an increase in the number of A30 binding sites FIG. 4B), but this increase is relatively small (25% total 17% for low affinity and 8% for high affinity sites).

[3] = target: HER2 extracellular domain (HER2-ECD) (Homo sapiens, UniProt P04626 SEQ:23-652); assay: EMSA; 0.5 uM protein; conditions: label: internal 32P; triple hairpin loop
heregulin = target: T3, heregulin (Homo sapiens); assay: EMSA; 0.5 uM protein; conditions: label: internal 32P; triple hairpin loop
T3 chain: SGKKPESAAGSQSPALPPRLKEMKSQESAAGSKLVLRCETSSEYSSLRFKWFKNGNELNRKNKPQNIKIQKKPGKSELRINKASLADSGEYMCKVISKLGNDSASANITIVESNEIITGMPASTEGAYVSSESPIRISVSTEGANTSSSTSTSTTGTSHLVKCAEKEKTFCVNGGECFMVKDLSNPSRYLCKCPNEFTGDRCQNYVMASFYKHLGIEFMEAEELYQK

[4] = target: T1, HER3 on MCF7 cells (with endogenous …); assay: competition; low affinity site on MCF7 cells, 4 C, PBS, +/-2.2, Scatchard; conditions: label: internal 32P; triple hairpin loop
Description: (§3) MCF7 cells (ATCC) were grown to 70% confluency on 6 well plates and washed with ice cold PBS. Following the washes, cells were incubated at 4° C. with 1 mL ice cold PBS or PBS containing 200 nM heregulin. After four hours an equal volume of ice cold PBS containing two microliter internally ³²P labeled A30 aptamer (80,000 cpm/μL), 20 μL RNAse inhibitor (20 units/μL), and varying concentrations of unlabeled aptamer were added. After four hours incubation, the supernatant was removed, and cells were washed three times with ice cold PBS. Displaced and bound radiolabeled aptamer was measured in duplicate.
as §2

[5] = target: T1, HER3 on MCF7 cells (with endogenous …); assay: competition; high affinity site on MCF7 cells, 4 C, PBS, +/-0.2, Scatchard; conditions: label: internal 32P; triple hairpin loop
Description: as §3, §2

[6] = target: T2, HER3 extracellular domain (HER3ECD, …); assay: EMSA; 8 pmol RNA with 24 pmol HER3ECD, 37 C; A18 and A30 do not displace each other; conditions: tags: C-terminal V5 and hexa-His (pMT/BiP/V5-His A, S2 insect cells); chain copies: oligomeric (self-associated; stated); label: internal 32P
Description: as §1

[7] = target: T2, HER3 extracellular domain (HER3ECD, …); assay: EMSA; 8 pmol RNA with 24 pmol HER3ECD, 37 C; conditions: tags: C-terminal V5 and hexa-His (pMT/BiP/V5-His A, S2 insect cells); chain copies: oligomeric (self-associated; stated); label: internal 32P
Description: as §1

T1 sequence (P21860 20-1342 E560G/E1064G): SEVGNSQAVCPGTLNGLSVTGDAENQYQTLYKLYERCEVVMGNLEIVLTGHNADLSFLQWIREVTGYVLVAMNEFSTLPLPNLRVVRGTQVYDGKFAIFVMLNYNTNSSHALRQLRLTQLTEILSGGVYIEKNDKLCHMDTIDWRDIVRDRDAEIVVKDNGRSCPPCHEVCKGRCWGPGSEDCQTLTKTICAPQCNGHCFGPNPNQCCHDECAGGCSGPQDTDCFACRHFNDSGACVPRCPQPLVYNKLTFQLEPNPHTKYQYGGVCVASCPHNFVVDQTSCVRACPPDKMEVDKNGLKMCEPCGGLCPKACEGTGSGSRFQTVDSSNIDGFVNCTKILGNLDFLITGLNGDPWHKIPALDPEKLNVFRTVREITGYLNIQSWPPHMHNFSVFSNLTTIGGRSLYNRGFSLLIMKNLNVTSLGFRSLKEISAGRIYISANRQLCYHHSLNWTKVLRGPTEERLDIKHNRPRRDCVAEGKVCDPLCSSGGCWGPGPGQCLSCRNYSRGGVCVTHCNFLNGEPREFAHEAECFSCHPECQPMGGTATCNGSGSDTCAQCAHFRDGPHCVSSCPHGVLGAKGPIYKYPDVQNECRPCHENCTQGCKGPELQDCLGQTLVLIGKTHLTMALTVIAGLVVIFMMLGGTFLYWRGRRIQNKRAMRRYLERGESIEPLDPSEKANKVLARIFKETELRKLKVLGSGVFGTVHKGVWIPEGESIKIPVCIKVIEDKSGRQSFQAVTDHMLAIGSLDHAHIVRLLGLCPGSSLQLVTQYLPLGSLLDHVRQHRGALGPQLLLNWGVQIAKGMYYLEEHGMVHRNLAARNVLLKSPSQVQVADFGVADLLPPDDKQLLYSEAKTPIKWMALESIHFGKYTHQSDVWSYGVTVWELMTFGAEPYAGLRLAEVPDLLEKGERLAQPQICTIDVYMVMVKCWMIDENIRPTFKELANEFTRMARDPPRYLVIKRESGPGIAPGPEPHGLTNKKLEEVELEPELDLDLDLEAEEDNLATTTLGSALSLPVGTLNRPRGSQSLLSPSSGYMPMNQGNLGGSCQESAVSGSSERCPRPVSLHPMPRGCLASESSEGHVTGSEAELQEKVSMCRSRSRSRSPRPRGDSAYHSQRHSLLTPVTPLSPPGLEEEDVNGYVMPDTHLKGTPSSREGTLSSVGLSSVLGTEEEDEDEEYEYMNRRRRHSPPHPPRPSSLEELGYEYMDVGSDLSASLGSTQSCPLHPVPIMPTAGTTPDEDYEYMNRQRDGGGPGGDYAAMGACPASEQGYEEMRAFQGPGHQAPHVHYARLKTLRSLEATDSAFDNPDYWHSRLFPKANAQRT

B1: A30 (ssRNA)
RNA: GGGAAUUCCGCGUGUGCCAGCGAAAGUUGCGUAUGGGUCACAUCGCAGGCACAUGUCAUCUGGGCGGUCCGUUCGGGAUCCUC
For B1, the IC50 [1] was ~1 nM, the Kd [2] was 45 nM and the binding result [3] was “no binding”. The binding result (heregulin) was “no binding”, the Kd [4] was 21 nM and the Kd [5] was 3.3 nM.

B2: A18 (ssRNA)
RNA: GGGAAUUCCGCGUGUGCACGAGUAUAGCCCACAUGGCACGACAGGGACGUUUCAUGUGCACAGUUGGUCCGUUCGGGAUCCUC
B2: binds [6].

B3: A37 (ssRNA)
RNA: GGGAAUUCCGCGUGUGCUUGAGAGGUCGUGCCAACUCUCAAGGUUGUCUUUGCUCUCCGCUCUGUGGUCCGUUCGGGAUCCUC
B3: binds [7].

B4: A19 (ssRNA)
RNA: GGGAAUUCCGCGUGUGCAGAUCAGGACAGAGCGCACAGGUGCCAUCCUGGUCUAACGCCCUCGAUGGUCCGUUCGGGAUCCUC
B4: binds [7].

B5: A23 (ssRNA)
RNA: GGGAAUUCCGCGUGUGCGAGGGGCGAGGACGCCGAGUAUAGCCCCUAGAGGUGGAUGUUUCACGGUGUCCGUUCGGGAUCCUC
B5: binds [7].

B6: A6 (ssRNA)
RNA: GGGAAUUCCGCGUGUGCAGAACAAUCGCAUAGGCCGCAAGGUUAGUUUCGUUGUCCGCCCGGUGCAGUCCGUUCGGGAUCCUC
B6: binds [7].

Reference: patent US20070027096, “Aptamers to human epidermal growth factor receptor-3” (published 2007)
